T1: PTK7 on PTK7 positive cell line SaOS-2 (osteosarcoma) (UniProt Q13308 31-1070)
T1 chain: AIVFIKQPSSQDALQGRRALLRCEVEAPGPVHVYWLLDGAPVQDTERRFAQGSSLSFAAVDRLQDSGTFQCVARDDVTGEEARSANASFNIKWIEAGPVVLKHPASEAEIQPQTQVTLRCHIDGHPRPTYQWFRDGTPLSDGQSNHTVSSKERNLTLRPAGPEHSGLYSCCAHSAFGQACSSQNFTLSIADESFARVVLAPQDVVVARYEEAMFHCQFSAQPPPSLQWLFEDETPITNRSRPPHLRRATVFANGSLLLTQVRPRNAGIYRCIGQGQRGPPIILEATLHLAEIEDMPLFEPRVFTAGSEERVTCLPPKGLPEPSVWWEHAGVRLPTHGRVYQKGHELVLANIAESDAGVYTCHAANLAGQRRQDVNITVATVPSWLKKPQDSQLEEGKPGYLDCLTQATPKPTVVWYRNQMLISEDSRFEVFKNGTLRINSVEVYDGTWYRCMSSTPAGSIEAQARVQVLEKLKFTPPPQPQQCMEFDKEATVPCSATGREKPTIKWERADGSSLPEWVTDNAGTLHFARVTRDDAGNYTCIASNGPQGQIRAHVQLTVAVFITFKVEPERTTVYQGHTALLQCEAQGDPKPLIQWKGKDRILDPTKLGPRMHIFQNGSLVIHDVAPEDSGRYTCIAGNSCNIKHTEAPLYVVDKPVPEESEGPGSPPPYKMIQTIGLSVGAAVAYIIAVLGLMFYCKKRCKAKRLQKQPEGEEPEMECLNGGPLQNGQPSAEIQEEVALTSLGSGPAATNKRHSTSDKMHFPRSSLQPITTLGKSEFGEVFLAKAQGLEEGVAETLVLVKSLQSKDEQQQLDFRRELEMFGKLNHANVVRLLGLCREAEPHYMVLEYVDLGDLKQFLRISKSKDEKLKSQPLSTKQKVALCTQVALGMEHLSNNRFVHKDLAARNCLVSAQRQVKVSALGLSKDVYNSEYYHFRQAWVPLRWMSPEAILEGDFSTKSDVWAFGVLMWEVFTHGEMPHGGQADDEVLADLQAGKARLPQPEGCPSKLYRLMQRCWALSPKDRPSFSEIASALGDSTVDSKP

B1: 181 M13 (antibody)
chain: QGCTYPPRFHMHWLCGSSGGSGGSGGSGGGPLGLAGGSSGQVQLVESGGGVVQPGRSLRLSCAASGFTFSSYGMHWVRQAPGKGLEWVAVIWDDGSNKYYVDSVKGRFTISRDNSKNTLYLQMNSLRAEDTAVYYCARDDYYGSGSFNSYYGTDVWGQGTTVTVSSGGGGSGGGGSGGGGSEIVLTQSPATLSLSPGERATLSCRASQSVSIYLAWYQQKPGQAPRLLIYDASNRATGIPARFSGSGSGTDFTLTISSLEPEDFAVYYCQQRSNWPPFTFGPGTKVDIKSAAAFVPVFLPAKPTTTPAPRPPTPAPTIASQPLSLRPEACRPAAGGAVHTRGLDFACDIYIWAPLAGTCGVLLLSLVITLYCNHRNRSKRSRLLHSDYMNMTPRRPGPTRKHYQPYAPPRDFAAYRSRVKFSRSADAPAYQQGQNQLYNELNLGRREEYDVLDKRRGRDPEMGGKPRRKNPQEGLYNELQKDKMAEAYSEIGMKGERRRGKGHDGLYQGLSTATKDTYDALHMQALPPR
B2: 181 M4 (antibody)
chain: B1 chain with Y5F, P7N, R8T, F9T, H10M, M11Q, H12R, W13T, L14F
B3: 181 M12 (antibody)
chain: B1 chain with Y5M, P7V, R8H, F9T, H10Y, M11S, H12Q
B4: 181 M14 (antibody)
chain: B1 chain with Y5H, P6V, P7A, R8Q, F9W, H10A, M11I, H12K, W13A, L14F
B5: 181 M3 (antibody)
chain: B1 chain with Y5M, R8S, F9P, H10R, M11S, H12K, W13V, L14I
B6: 181 M6 (antibody)
chain: B1 chain with C3V, T4C, Y5T, P6Y, R8P, F9A, M11R, H12T, W13R, L14F
B7: 181 M7 (antibody)
chain: B1 chain with Y5M, P7Y, R8H, F9I, M11S, H12I, W13G
B8: 181 M5 (antibody)
chain: B1 chain with P7S, R8W, F9V, H10A, M11Y, H12I, W13R, L14F
B9: 181 M8 (antibody)
chain: B1 chain with C3W, T4C, Y5T, P6I, R8S, F9S, H10M, M11S, H12I, W13R
B10: 181 M10 (antibody)
chain: QGCYIGLRMVPCFHMGSSGGSGGSGGSGGGPLGLAGGSSGQVQLVESGGGVVQPGRSLRLSCAASGFTFSSYGMHWVRQAPGKGLEWVAVIWDDGSNKYYVDSVKGRFTISRDNSKNTLYLQMNSLRAEDTAVYYCARDDYYGSGSFNSYYGTDVWGQGTTVTVSSGGGGSGGGGSGGGGSEIVLTQSPATLSLSPGERATLSCRASQSVSIYLAWYQQKPGQAPRLLIYDASNRATGIPARFSGSGSGTDFTLTISSLEPEDFAVYYCQQRSNWPPFTFGPGTKVDIKSAAAFVPVFLPAKPTTTPAPRPPTPAPTIASQPLSLRPEACRPAAGGAVHTRGLDFACDIYIWAPLAGTCGVLLLSLVITLYCNHRNRSKRSRLLHSDYMNMTPRRPGPTRKHYQPYAPPRDFAAYRSRVKFSRSADAPAYQQGQNQLYNELNLGRREEYDVLDKRRGRDPEMGGKPRRKNPQEGLYNELQKDKMAEAYSEIGMKGERRRGKGHDGLYQGLSTATKDTYDALHMQALPPR
B11: 181 M11 (antibody)
chain: B1 chain with Y5M, P7S, R8H, F9A, H10V, M11A, H12S, W13F
B12: 181 M9 (antibody)
chain: QGCHIGKRPVPCLWIGSSGGSGGSGGSGGGPLGLAGGSSGQVQLVESGGGVVQPGRSLRLSCAASGFTFSSYGMHWVRQAPGKGLEWVAVIWDDGSNKYYVDSVKGRFTISRDNSKNTLYLQMNSLRAEDTAVYYCARDDYYGSGSFNSYYGTDVWGQGTTVTVSSGGGGSGGGGSGGGGSEIVLTQSPATLSLSPGERATLSCRASQSVSIYLAWYQQKPGQAPRLLIYDASNRATGIPARFSGSGSGTDFTLTISSLEPEDFAVYYCQQRSNWPPFTFGPGTKVDISAAAFVPVFLPAKPTTTPAPRPPTPAPTIASQPLSLRPEACRPAAGGAVHTRGLDFACDIYIWAPLAGTCGVLLLSLVITLYCNHRNRSKRSRLLHSDYMNMTPRRPGPTRKHYQPYAPPRDFAAYRSRVKFSRSADAPAYQQGQNQLYNELNLGRREEYDVLDKRRGRDPEMGGKPRRKNPQEGLYNELQKDKMAEAYSEIGMKGERRRGKGHDGLYQGLSTATKDTYDALHMQALPPR

Changes are numbered by the printed parent chain.

One experiment deals with T1, PTK7 on PTK7 positive cell line SaOS-2 …. Nature of the experiment: FACS binding SaOS-2.
On to B1, for which a half-maximal response (EC50) required 40.9 nM. That is a double-digit nanomolar value.

As to B2, the midpoint of the response, the EC50, lay at 16.7 nM.

B3: the midpoint of the response, the EC50, lay at 93.8 nM.

With B4, the half-maximal effective concentration (EC50) (as a rule, the concentration that produces a half-maximal response) worked out at 68.8 nM. This EC50 and that of the molecule before are within 1.5-fold of each other.

On to B5, for which the EC50 came out at 225 nM.

In turn, B6 displayed an EC50 of 30.5 nM.

B7 showed an EC50 of 118 nM. Compared with the last molecule, the EC50 is about 3.9-fold higher.

The molecule B8 returned an EC50 of 29.9 nM. This EC50 is about 3.9-fold lower than that of the molecule before.

In turn, B9 returned an EC50 of 101 nM.

Molecule B10 had an EC50 of 1350 nM. This EC50 is about 13-fold higher than that of the molecule before.

In the case of B11, the EC50 was determined as 222 nM.

B12: a half-maximal response (EC50) required 141 nM.

For another experiment the target is unchanged. Nature of the experiment: FACS binding SaOS-2; +MMP14. For orientation: Flow cytometry measures light scatter and fluorescence of single cells or particles in a stream.
B1 came in with an EC50 of 0.38 nM.

B2: the EC50 was 0.41 nM. The EC50 values of the last two molecules are within 1.5-fold of each other.

Molecule B5 displayed an EC50 of 0.95 nM.

On to B9, for which the EC50 turned out to be 0.8 nM. The EC50 values of the last two molecules are within 1.5-fold of each other.

As for B10, the midpoint of the response, the EC50, lay at 0.49 nM.

Another experiment has the same target. Nature of the experiment: FACS binding SaOS-2; -MMP14.
For B1, the EC50 is 58.6 nM.

B2 returned an EC50 of 20.8 nM.

In the case of B5, it took 406 nM to reach a half-maximal effect (EC50). This EC50 is about 20-fold higher than that of the molecule before.

For the molecule B9, the midpoint of the response, the EC50, lay at 96.9 nM.

B10: a half-maximal response (EC50) required 434 nM.

For the origin of these results see US20210347913A1 (published 2021).
